The values below come from US20230357348A1 (AstraZeneca / MedImmune, published 2023).

Assay [1] has as its target human GLP-1 receptor (hGLP-1R) (human, UniProt P43220 24-463). Briefly: cell-based or functional assay.
Assay [2] addresses human glucagon receptor (hGCGR) (human, UniProt P47871 26-477). Briefly: cell-based or functional assay.

Starred links: 1 amine or outer side, 2 acyl side, 3 side chain; linkers in the order of their positions; H or OH if unused. Non-standard residues stand in square brackets, D forms with d. Groups on a side chain read outwards from the residue. No end group written: not given here. *: point of attachment. C20 diacid = O=C(O)CCCCCCCCCCCCCCCCCCC(=O)*; C18 diacid = O=C(O)CCCCCCCCCCCCCCCCC(=O)*; γGlu = O=C(O)[C@H](CCC(=O)[*:2])N[*:1]; αMeF = C[C@](N)(Cc1ccccc1)C(=O)O; AEEA = NCCOCCOCC(=O)O; Aib = CC(C)(N)C(=O)O

Sequence of human glucagon receptor (hGCGR) (P47871 26-477): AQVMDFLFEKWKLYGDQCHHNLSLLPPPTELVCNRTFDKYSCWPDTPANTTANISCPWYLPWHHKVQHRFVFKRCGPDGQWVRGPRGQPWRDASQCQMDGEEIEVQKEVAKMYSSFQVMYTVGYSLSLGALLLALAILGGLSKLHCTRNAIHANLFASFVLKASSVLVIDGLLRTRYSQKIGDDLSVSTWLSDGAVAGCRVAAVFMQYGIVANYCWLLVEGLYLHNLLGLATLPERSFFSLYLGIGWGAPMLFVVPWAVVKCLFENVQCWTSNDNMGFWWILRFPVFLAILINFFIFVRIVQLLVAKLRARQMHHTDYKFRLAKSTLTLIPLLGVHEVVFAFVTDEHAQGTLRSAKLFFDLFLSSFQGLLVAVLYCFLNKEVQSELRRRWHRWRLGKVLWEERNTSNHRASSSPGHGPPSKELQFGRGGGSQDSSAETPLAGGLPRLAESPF

B1: Peptide 418 (peptide)
peptide: H[Aib]QGTFTSDVSK[αMeF]LDTK([AEEA-AEEA-γGlu-γGlu-C20 diacid])RAQDFVAWLEA[Aib]G-OH
modifications: N-terminus assumed
SMILES: CC(C)C[C@H](NC(=O)[C@H](Cc1c[nH]c2ccccc12)NC(=O)[C@H](C)NC(=O)[C@@H](NC(=O)[C@H](Cc1ccccc1)NC(=O)[C@H](CC(=O)O)NC(=O)[C@H](CCC(N)=O)NC(=O)[C@H](C)NC(=O)[C@H](CCCNC(=N)N)NC(=O)[C@H](CCCCNC(=O)COCCOCCNC(=O)COCCOCCNC(=O)CC[C@H](NC(=O)CC[C@H](NC(=O)CCCCCCCCCCCCCCCCCCC(=O)O)C(=O)O)C(=O)O)NC(=O)[C@@H](NC(=O)[C@H](CC(=O)O)NC(=O)[C@H](CC(C)C)NC(=O)[C@](C)(Cc1ccccc1)NC(=O)[C@H](CCCCN)NC(=O)[C@H](CO)NC(=O)[C@@H](NC(=O)[C@H](CC(=O)O)NC(=O)[C@H](CO)NC(=O)[C@@H](NC(=O)[C@H](Cc1ccccc1)NC(=O)[C@@H](NC(=O)CNC(=O)[C@H](CCC(N)=O)NC(=O)C(C)(C)NC(=O)[C@@H](N)Cc1c[nH]cn1)[C@@H](C)O)[C@@H](C)O)C(C)C)[C@@H](C)O)C(C)C)C(=O)N[C@@H](CCC(=O)O)C(=O)N[C@@H](C)C(=O)NC(C)(C)C(=O)NCC(=O)O
Turning to B1, in assay [1], the “hGLP-1R EC50 (pM)” value came to 88.1 pM. In addition, the “hGluc-R EC50 (pM)” value in assay [2] came out at 222 pM.

B2: Peptide 422 (peptide)
peptide: H[Aib]QGTFTSDVSK[αMeF]LDRK([AEEA-AEEA-γGlu-C18 diacid])RAQDFVRWLL[Aib]TE-NH2
modifications: N-terminus assumed
SMILES: CC(C)C[C@H](NC(=O)[C@H](Cc1c[nH]c2ccccc12)NC(=O)[C@H](CCCNC(=N)N)NC(=O)[C@@H](NC(=O)[C@H](Cc1ccccc1)NC(=O)[C@H](CC(=O)O)NC(=O)[C@H](CCC(N)=O)NC(=O)[C@H](C)NC(=O)[C@H](CCCNC(=N)N)NC(=O)[C@H](CCCCNC(=O)COCCOCCNC(=O)COCCOCCNC(=O)CC[C@H](NC(=O)CCCCCCCCCCCCCCCCC(=O)O)C(=O)O)NC(=O)[C@H](CCCNC(=N)N)NC(=O)[C@H](CC(=O)O)NC(=O)[C@H](CC(C)C)NC(=O)[C@](C)(Cc1ccccc1)NC(=O)[C@H](CCCCN)NC(=O)[C@H](CO)NC(=O)[C@@H](NC(=O)[C@H](CC(=O)O)NC(=O)[C@H](CO)NC(=O)[C@@H](NC(=O)[C@H](Cc1ccccc1)NC(=O)[C@@H](NC(=O)CNC(=O)[C@H](CCC(N)=O)NC(=O)C(C)(C)NC(=O)[C@@H](N)Cc1c[nH]cn1)[C@@H](C)O)[C@@H](C)O)C(C)C)C(C)C)C(=O)N[C@@H](CC(C)C)C(=O)NC(C)(C)C(=O)N[C@H](C(=O)N[C@@H](CCC(=O)O)C(N)=O)[C@@H](C)O
For B2, the “hGLP-1R EC50 (pM)” value in assay [1] was 27.6 pM. Further, the “hGluc-R EC50 (pM)” value in assay [2] was 123 pM.

B3: Peptide 421 (peptide)
peptide: H[Aib]QGTFTSDVSK[αMeF]LDRK([AEEA-AEEA-γGlu-C18 diacid])RAQDFVRWLL[Aib]TE-OH
modifications: N-terminus assumed
SMILES: CC(C)C[C@H](NC(=O)[C@H](Cc1c[nH]c2ccccc12)NC(=O)[C@H](CCCNC(=N)N)NC(=O)[C@@H](NC(=O)[C@H](Cc1ccccc1)NC(=O)[C@H](CC(=O)O)NC(=O)[C@H](CCC(N)=O)NC(=O)[C@H](C)NC(=O)[C@H](CCCNC(=N)N)NC(=O)[C@H](CCCCNC(=O)COCCOCCNC(=O)COCCOCCNC(=O)CC[C@H](NC(=O)CCCCCCCCCCCCCCCCC(=O)O)C(=O)O)NC(=O)[C@H](CCCNC(=N)N)NC(=O)[C@H](CC(=O)O)NC(=O)[C@H](CC(C)C)NC(=O)[C@](C)(Cc1ccccc1)NC(=O)[C@H](CCCCN)NC(=O)[C@H](CO)NC(=O)[C@@H](NC(=O)[C@H](CC(=O)O)NC(=O)[C@H](CO)NC(=O)[C@@H](NC(=O)[C@H](Cc1ccccc1)NC(=O)[C@@H](NC(=O)CNC(=O)[C@H](CCC(N)=O)NC(=O)C(C)(C)NC(=O)[C@@H](N)Cc1c[nH]cn1)[C@@H](C)O)[C@@H](C)O)C(C)C)C(C)C)C(=O)N[C@@H](CC(C)C)C(=O)NC(C)(C)C(=O)N[C@H](C(=O)N[C@@H](CCC(=O)O)C(=O)O)[C@@H](C)O
With B3, in assay [1], the “hGLP-1R EC50 (pM)” value was determined as 87.3 pM. In addition, the “hGluc-R EC50 (pM)” value in assay [2] is 180 pM.

B4: Peptide 420 (peptide)
peptide: H[Aib]QGTFTSDVSK[αMeF]LDKK([AEEA-AEEA-γGlu-C18 diacid])RAQDFVRWLL[Aib]E-NH2
modifications: N-terminus assumed
SMILES: CC(C)C[C@H](NC(=O)[C@H](Cc1c[nH]c2ccccc12)NC(=O)[C@H](CCCNC(=N)N)NC(=O)[C@@H](NC(=O)[C@H](Cc1ccccc1)NC(=O)[C@H](CC(=O)O)NC(=O)[C@H](CCC(N)=O)NC(=O)[C@H](C)NC(=O)[C@H](CCCNC(=N)N)NC(=O)[C@H](CCCCNC(=O)COCCOCCNC(=O)COCCOCCNC(=O)CC[C@H](NC(=O)CCCCCCCCCCCCCCCCC(=O)O)C(=O)O)NC(=O)[C@H](CCCCN)NC(=O)[C@H](CC(=O)O)NC(=O)[C@H](CC(C)C)NC(=O)[C@](C)(Cc1ccccc1)NC(=O)[C@H](CCCCN)NC(=O)[C@H](CO)NC(=O)[C@@H](NC(=O)[C@H](CC(=O)O)NC(=O)[C@H](CO)NC(=O)[C@@H](NC(=O)[C@H](Cc1ccccc1)NC(=O)[C@@H](NC(=O)CNC(=O)[C@H](CCC(N)=O)NC(=O)C(C)(C)NC(=O)[C@@H](N)Cc1c[nH]cn1)[C@@H](C)O)[C@@H](C)O)C(C)C)C(C)C)C(=O)N[C@@H](CC(C)C)C(=O)NC(C)(C)C(=O)N[C@@H](CCC(=O)O)C(N)=O
Regarding B4, the “hGLP-1R EC50 (pM)” value in assay [1] came to 23.1 pM. For the same molecule, the “hGluc-R EC50 (pM)” value in assay [2] amounted to 36.9 pM.

B5: Peptide 419 (peptide)
peptide: H[Aib]QGTFTSDVSK[αMeF]LDTK([AEEA-AEEA-γGlu-C18 diacid])RAQDFVRWLE[Aib]E-OH
modifications: N-terminus assumed
SMILES: CC(C)C[C@H](NC(=O)[C@H](Cc1c[nH]c2ccccc12)NC(=O)[C@H](CCCNC(=N)N)NC(=O)[C@@H](NC(=O)[C@H](Cc1ccccc1)NC(=O)[C@H](CC(=O)O)NC(=O)[C@H](CCC(N)=O)NC(=O)[C@H](C)NC(=O)[C@H](CCCNC(=N)N)NC(=O)[C@H](CCCCNC(=O)COCCOCCNC(=O)COCCOCCNC(=O)CC[C@H](NC(=O)CCCCCCCCCCCCCCCCC(=O)O)C(=O)O)NC(=O)[C@@H](NC(=O)[C@H](CC(=O)O)NC(=O)[C@H](CC(C)C)NC(=O)[C@](C)(Cc1ccccc1)NC(=O)[C@H](CCCCN)NC(=O)[C@H](CO)NC(=O)[C@@H](NC(=O)[C@H](CC(=O)O)NC(=O)[C@H](CO)NC(=O)[C@@H](NC(=O)[C@H](Cc1ccccc1)NC(=O)[C@@H](NC(=O)CNC(=O)[C@H](CCC(N)=O)NC(=O)C(C)(C)NC(=O)[C@@H](N)Cc1c[nH]cn1)[C@@H](C)O)[C@@H](C)O)C(C)C)[C@@H](C)O)C(C)C)C(=O)N[C@@H](CCC(=O)O)C(=O)NC(C)(C)C(=O)N[C@@H](CCC(=O)O)C(=O)O
Turning to B5, the “hGLP-1R EC50 (pM)” value in assay [1] came to 96.9 pM. Also, the “hGluc-R EC50 (pM)” value in assay [2] amounted to 264 pM.

B6: Peptide 417 (peptide)
peptide: H[Aib]QGTFTSDVSK[αMeF]LDTK([AEEA-AEEA-γGlu-γGlu-C18 diacid])RAQDFVAWLEA[Aib]G-OH
modifications: N-terminus assumed
SMILES: CC(C)C[C@H](NC(=O)[C@H](Cc1c[nH]c2ccccc12)NC(=O)[C@H](C)NC(=O)[C@@H](NC(=O)[C@H](Cc1ccccc1)NC(=O)[C@H](CC(=O)O)NC(=O)[C@H](CCC(N)=O)NC(=O)[C@H](C)NC(=O)[C@H](CCCNC(=N)N)NC(=O)[C@H](CCCCNC(=O)COCCOCCNC(=O)COCCOCCNC(=O)CC[C@H](NC(=O)CC[C@H](NC(=O)CCCCCCCCCCCCCCCCC(=O)O)C(=O)O)C(=O)O)NC(=O)[C@@H](NC(=O)[C@H](CC(=O)O)NC(=O)[C@H](CC(C)C)NC(=O)[C@](C)(Cc1ccccc1)NC(=O)[C@H](CCCCN)NC(=O)[C@H](CO)NC(=O)[C@@H](NC(=O)[C@H](CC(=O)O)NC(=O)[C@H](CO)NC(=O)[C@@H](NC(=O)[C@H](Cc1ccccc1)NC(=O)[C@@H](NC(=O)CNC(=O)[C@H](CCC(N)=O)NC(=O)C(C)(C)NC(=O)[C@@H](N)Cc1c[nH]cn1)[C@@H](C)O)[C@@H](C)O)C(C)C)[C@@H](C)O)C(C)C)C(=O)N[C@@H](CCC(=O)O)C(=O)N[C@@H](C)C(=O)NC(C)(C)C(=O)NCC(=O)O
With B6, the “hGLP-1R EC50 (pM)” value in assay [1] stood at 33.9 pM. The “hGluc-R EC50 (pM)” value in assay [2] stood at 16.4 pM.

B7: Peptide 423 (peptide)
peptide: H[Aib]QGTFTSDVSK[αMeF]LDKK([AEEA-AEEA-γGlu-C18 diacid])RAQDFVRWLK[Aib]TE-OH
modifications: N-terminus assumed
SMILES: CC(C)C[C@H](NC(=O)[C@H](Cc1c[nH]c2ccccc12)NC(=O)[C@H](CCCNC(=N)N)NC(=O)[C@@H](NC(=O)[C@H](Cc1ccccc1)NC(=O)[C@H](CC(=O)O)NC(=O)[C@H](CCC(N)=O)NC(=O)[C@H](C)NC(=O)[C@H](CCCNC(=N)N)NC(=O)[C@H](CCCCNC(=O)COCCOCCNC(=O)COCCOCCNC(=O)CC[C@H](NC(=O)CCCCCCCCCCCCCCCCC(=O)O)C(=O)O)NC(=O)[C@H](CCCCN)NC(=O)[C@H](CC(=O)O)NC(=O)[C@H](CC(C)C)NC(=O)[C@](C)(Cc1ccccc1)NC(=O)[C@H](CCCCN)NC(=O)[C@H](CO)NC(=O)[C@@H](NC(=O)[C@H](CC(=O)O)NC(=O)[C@H](CO)NC(=O)[C@@H](NC(=O)[C@H](Cc1ccccc1)NC(=O)[C@@H](NC(=O)CNC(=O)[C@H](CCC(N)=O)NC(=O)C(C)(C)NC(=O)[C@@H](N)Cc1c[nH]cn1)[C@@H](C)O)[C@@H](C)O)C(C)C)C(C)C)C(=O)N[C@@H](CCCCN)C(=O)NC(C)(C)C(=O)N[C@H](C(=O)N[C@@H](CCC(=O)O)C(=O)O)[C@@H](C)O
As for B7, the “hGLP-1R EC50 (pM)” value in assay [1] is 26.1 pM. For the same molecule, the “hGluc-R EC50 (pM)” value in assay [2] was found to be 2220 pM.
